US20210205462A1, “Translocation into Eukaryotic Cells” (The University Court of the University of Aberdeen, priority 2018, published 2021)

How the values were obtained:
RTG-2 cells = test: Translocation mechanism study with uptake pathway inhibitors in RTG-2 cells; assay type: cell-based, rainbow trout; details: 80 μM dynasore, 1× Brefeldin A or 100 μM nystatin pre-incubation; 3 μM SpHtp1^24-68-mRFP 1 h at 18° C.
Method: (§1) Cell culture maintenance of fish RTG-2 (ATCC CCL-55) was done according to the manufacturer's or publisher's instructions. L-15 medium was supplemented with 10% FBS, 100 units/ml Penicillin and 100 μg/ml Streptomycin. Wells containing cover slips with attached cells of 80% confluent were washed 2× with HBSS before translocation experiments.
For experiments investigating translocation mechanism, cells were pre-incubated with various inhibitors (80 μM of dynasore, 1× Brefeldin A or 100 μM nystatin) for 1 h at 18° C., 2 h for dynasore (FIG. 2). Afterwards, 3 μM SpHtp1^24-68-mRPF were incubated for another 1 h at 18° C. For the time course experiment (FIG. 2) cells were pre-incubated with 10 μM dynasore and the incubation with 3 μM SpHtp1^24-68-mRPF at 18° C. stopped at the times as indicated. In order to investigate the influence of SpHtp1^24-198-His on the vesicle release of SpHtp3^21-211-RFP, 3 μM of each protein was pre-incubated in L-15 for 30 min at RT before added to the cells for the usual incubation of 1 h at 18° C.
(§2) After incubation human as well as fish cells were washed 3× with HBSS and fixed with 4% ice-cold PFA in PBST (PBS+0.1% tween) for 15 min at RT. Residual PFA was removed with 5× washing steps with PBS. Cells were mounted with Vectashield with DAPI. Samples were analysed by a Zeiss LSM710 confocal microscope or an epifluorescence microscope (Zeiss Imager M2 with metal halide light source). For quantification mean intensity or vesicles per cell were counted with ImageJ. A maximum of 5 cells were analysed from the same picture. Bars denote s.e.m of 50 cells counted per sample.

human A549 cells [1] = test: Inhibitor studies of SpHtp1^24-68-mRFP translocation into A549 cells; assay type: cell-based
Method: as §1, with “human A549 cell,” for “fish RTG-2 (ATCC CCL-55)”, “DMEM” for “L-15”, “before the” for “before”
For the inhibitor studies, A549 cells were pre-incubated with different concentrations of SCH-202676 (allosteric inhibitor via disulfhydryl group) as indicated for 1 h at 37° C. and after this incubated for another 1 h at 37° C. with 3 μM SpHtp1^24-68-mRPF.
as §2

β2-adrenergic receptor [2] = target: T1, β2-adrenergic receptor (Homo sapiens, UniProt P07550)
human A549 cells [3] = test: Translocation of SpHtp1^24-68-mRFP into human A549 cells; assay type: cell-based; details: see FIG. 2A, 2C
Method: as §1, with “human A549 cell,” for “fish RTG-2 (ATCC CCL-55)”, “DMEM” for “L-15”, “before the” for “before”
For translocation experiments using SpHtp1-coupled microparticles (FIG. 1), 300 μg carbon beads were pre-incubated with 3 μM SpHtp1^24-68-mRPF in 300 μl DMEM without Fetal Calf Serum for 1 h at 37° C. on a rotator to couple the SpHtp1 translocation sequence to the particles. […] Following coupling, the supplemented medium was applied to the cells for 1 h at 37° C. For translocation experiments using SpHtp1^24-68-mRPF (FIG. 2) cells were incubated with 3 μm SpHtp1^24-68-mRPF for 1 h at 37° C.
as §2

SpHtp3 = test: Protein cross linking of SpHtp1 and SpHtp3; assay type: binding, Saprolegnia parasitica; details: PFA cross link; FIG. 5E
Method: In order to detect a direct interaction, 10 μg of SpHtp1 and 10 μg of SpHtp3 or each protein alone were pre-incubated in PBS (total: 15 μl) for 15 min at RT. For cross linking 15 μl ice-cold 4% PFA/PBS (final concentration: 2%) was added and incubated for 10 min at RT. The reaction was stopped with 7 μl Laemmli loading dye and subsequent heating to 65° C. for 10 min. Complex formation was investigated by SDS-PAGE and confirmed by LC-MS/MS.

cells = test: Cytotoxic effects, cell morphology and viability after extended incubation; assay type: cell-based; details: extended incubation periods of up to 24 hours
[4] = test system: human cells (such as HEK cells or the human epithelial lung cell line A549); test: Translocation into human cells; assay type: cell-based
β2-adrenergic receptor [5] = target: T1, β2-adrenergic receptor; test: Co-immunoprecipitation with anti-β2 adrenoceptor antibody; assay type: binding; set-up: confluent A549 cells from a 75 cm^2 flask where detached and resuspended in 500 μl PBS; The cells were lysed by sonication; endogenous in cells; host or cells: A549 (human lung epithelial cell line), sonicated lysate supernatant; details: A549 lysate, 10 μM SpHtp1^24-68-RFP; FIG. 3C
Method: For co-immunoprecipitation (FIG. 3) confluent A549 cells from a 75 cm^2 flask where detached and resuspended in 500 μl PBS. The cells were lysed by sonication (3×30 sec, 30% intensity, 1 min break on ice) and cell debris removed by centrifugation (16,000×g, 25 min, 4° C.). The supernatant was supplemented with 10 μM SpHtp1^24-68-RFP and 2.5 μg of an anti-82 adrenoceptor and incubated overnight on rotator at 4° C. The next day 200 μl PBS-equilibrated protein G/A beads were added for 2.5 h on rotator at 4° C. After, beads were washed 5 times with 1 ml PBS each. The elution was done with SDS sample buffer and boiling at 95° C. for 10 min.
For the immunoblot, samples were transferred to a nitrocellulose membrane and blocked with 5% milk powder in PBST (PBS+0.1% tween) for 1 h at RT. Incubation of the first antibody (anti-(32 adrenoceptor, 1:200) was done overnight on rotator at 4° C. Excess of antibody was removed by 3 washing steps with PBST, 5 min each. The secondary antibody (anti-rabbit HRP-coupled, 1:1000) was incubated for 1 h at RT in PBST with 5% milk powder. The membrane was washed 4 times (2×PBST and 2×PBS) before the bands were visualised with an ECL substrate and a developer.

fish cells = test: Translocation into fish cells; assay type: cell-based

How did the “effect on SpHtp1^24-68-mRFP translocation” value (RTG-2 cells) turn out when `C[C@H]1CCC/C=C/[C@@H]2C[C@H](O)C[C@H]2[C@H](O)/C=C/C(=O)O1` [Brefeldin A] was run?
Its value is “no effect”.

Which “binding of SpHtp1^24-68-mRFP to the cells after pre-incubation with inhibitor” value (human A549 cells [1]; 10 μM SCH-202676, FIG. 3A) does the source give for `CN=c1nc(-c2ccccc2)n(-c2ccccc2)s1` [SCH-202676] here?
Its value is “not influenced”.

What about the “translocation of SpHtp1^24-68-mRFP into cells after pre-incubation with inhibitor” value (human A549 cells [1]; 10 μM SCH-202676, FIG. 3A) of the same molecule?
The value was “inhibited”.

And the “concentration dependence of inhibition of translocation” value (human A549 cells [1]; different concentrations, 1 h at 37° C., FIG. 3B)?
The value was “concentration-dependent”.

With `CNCC(O)c1ccc(O)c(O)c1` (stereo not drawn) [adrenalin] as the molecule, how does the “effect of endogenous receptor ligands on the uptake of SpHtp1” value (human A549 cells [1]) read?
The value was “do not have an effect”.

`O=C(N/N=C/c1ccc(O)c(O)c1)c1cc2ccccc2cc1O` [dynasore] was tested. Which “effect on SpHtp1^24-68-mRFP translocation” value (RTG-2 cells) did it give?
Its value is “accumulation of red fluorescence at the membrane”.

For `NC[C@H](O)c1ccc(O)c(O)c1` [noradrenalin], which “effect of endogenous receptor ligands on the uptake of SpHtp1” value (human A549 cells [1]) is on record?
Its value is “do not have an effect”.

Which “effect on SpHtp1^24-68-mRFP translocation” value (RTG-2 cells) does the source give for `C[C@@H]1[C@H](O)[C@@H](C)/C=C/C=C/CC/C=C/C=C/C=C/C=C/C(O[C@H]2O[C@H](C)[C@@H](O)[C@H](N)[C@@H]2O)CC2O[C@](O)(CC(O)C(O)CCC(O)CC(O)CC(O)CC(=O)O[C@H]1C)CC(O)C2C(=O)O` (stereo partly drawn) [nystatin] here?
The value was “no effect”.

With SpHtp1^24-68-mRFP as the molecule, how does the uptake into the cell, EC50 (β2-adrenergic receptor [2]) read?
Its uptake into the cell, EC50 is 1230 nM.

B1: SpHtp1: putative effector protein from the fish pathogenic oomycete Saprolegnia parasitica, full-length 198 amino acids (protein)
chain: MRIHHPLTLAALCVVLHESLGAAQHSNNVARLEHYRIAEIEHWEKRHLRSDSRGHRHHAHHGQVIDKENNNSQEQATTGNSVETNQVPSTEPTKDKTTPMKNALFKLFREKKLKTKNAGNGHAHDDDDDSDFSDDDVPTNAPTDAPTGAPTDAPTDAPTVAPTDAPTDAPTEAPTNAPTGTDAPTDAPTDAQVVPTFD
modifications: SpHtp1 (1-198)
What does the source list for B1?
EC50 (human A549 cells [3]; cell line not given, read-out: uptake into the cell, EC50): 1230 nM; time of binding of SpHtp1 to the cell surface (human A549 cells [3]): 5 to 10 min; time to significant uptake into the cell (human A549 cells [3]): 20 to 30 min; in vitro complex formation after cross link (SDS-PAGE, LC-MS/MS) (SpHtp3): additional band for a cross-linked SpHtp1-SpHtp3 complex; cytotoxic effects, cell morphology, viability (cells): do not have any immediate cytotoxic effects on cells, and do not alter cell morphology or viability; entry into human cells ([4]; via the β-adrenoceptor): able to enter human cells; interaction with the β2-adrenergic receptor by co-immunoprecipitation (β2-adrenergic receptor [5]): at least indirect interaction

B2: SpHtp1a: SpHtp1 homolog shown in FIG. 6 (protein)
chain: MRIYHPLTLAALCVVLHESLGAAQHSNNVARLEHYSVAEIEHWEKRHLRNSDSRGHRHHAHHGQVIDKENNNSQEQATTGNSVETNQVPFTQPTKDKTASIKTAVFKLLRENKLKTKNAGNGHAHDDDDDDDSNFSDDDVPTNAPTGAPTGAPTDAPTNAPTDAPTDAPTDAPTDAPTDAPTDAPTDAPTTLPPMPRRRSHRCPDRHSHRCDPRRTHGCPD
modifications: SpHtp1a (1-221)
How did the “translocation into fish cells” value (fish cells) turn out when B2 was run?
Its value is “able to translocate into both fish and human cells”.

What about the “translocation into human cells” value [4] of the same molecule?
The value was “able to translocate into both fish and human cells”.
